Data on two substances can be found in article PMC12000397.

The target of experiment [1] is Grp94 N91C labeled with Alexa Fluor 555 (donor) and Alexa Fluor 647 (acceptor) (mouse) (UniProt P08113). Put plainly: other fluorescence titration; bulk FRET of 125 nM donor- and acceptor-labeled Grp94 N91C, BiP NBD titrated, apo conditions; 30 °C, 25 mM Tris pH 7.5, 50 mM KCl, 1 mM BME, 1 mg/mL BSA; single-site fit; apparent.
Experiment [2] concerns the target FITC-labeled BiP_(I191A) NBD (mouse). The experiment can be described thus: fluorescence polarisation; 50 nM FITC-labeled BiP NBD constructs, Grp94 or Grp94 MD titrated; 25 mM Tris pH 7.5, 50 mM KCl, 1 mM ADP (hexokinase-treated), 1 mM DTT; single-site binding fit. (In general: Polarisation of emitted light reports the rotation of a fluorescent probe.)
The target of experiment [3] is FITC-labeled BiP_(D187A) NBD (mouse). The description is as above.
Experiment [4] deals with FITC-labeled BiP NBD (mouse). Described as above.

Grp94 (residues 72-765) with the charged-linker removed (Δ287-328), sequence (P08113 other isoform, or with tags, fused parts or gaps mutant): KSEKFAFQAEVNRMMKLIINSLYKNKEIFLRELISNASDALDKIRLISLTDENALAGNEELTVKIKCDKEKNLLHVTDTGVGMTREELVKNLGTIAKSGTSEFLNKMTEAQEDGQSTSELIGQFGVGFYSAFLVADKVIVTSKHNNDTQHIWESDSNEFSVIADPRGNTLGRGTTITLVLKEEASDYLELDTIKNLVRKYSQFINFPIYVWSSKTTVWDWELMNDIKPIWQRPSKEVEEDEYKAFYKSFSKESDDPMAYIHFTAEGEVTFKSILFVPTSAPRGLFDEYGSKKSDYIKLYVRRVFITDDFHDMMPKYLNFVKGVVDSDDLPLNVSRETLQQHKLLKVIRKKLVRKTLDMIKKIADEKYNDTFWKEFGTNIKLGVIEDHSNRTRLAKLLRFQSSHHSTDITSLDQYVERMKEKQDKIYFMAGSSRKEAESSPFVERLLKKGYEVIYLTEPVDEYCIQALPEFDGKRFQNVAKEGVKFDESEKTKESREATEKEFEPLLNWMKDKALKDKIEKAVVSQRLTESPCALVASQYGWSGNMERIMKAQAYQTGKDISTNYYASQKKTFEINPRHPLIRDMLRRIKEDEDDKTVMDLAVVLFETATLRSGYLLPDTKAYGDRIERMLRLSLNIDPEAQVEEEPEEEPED
Grp94 N91C labeled with Alexa Fluor 555 (donor) and Alexa Fluor 647 (acceptor) (mouse), sequence (P08113 other isoform, or with tags, fused parts or gaps Δ287-328 | N91C | N91C): as the sequence (P08113 other isoform, or with tags, fused parts or gaps mutant) above, with N20C counted along it

Take BiP NBD (domain or fragment): in experiment [1], the Kd was found to be 0.67 µM.

In the case of “Grp94 (residues 72-765) with the charged-linker removed (Δ287-328) (from UniProt P08113 72-765) (natural protein)”, the Kd in experiment [2] was found to be 9 µM; in experiment [3] it was 8.2 µM; in experiment [4], 1.4 µM.
